Laboratory results published in patent publication US20190106487A1 (Sanofi, published 2019).
Where a chain is given by its changes, count along the chain named.

T1: human IL-1RAcP on 293T/17-FR cells (human, UniProt Q9NPH3 21-570)
T1 sequence (looked up): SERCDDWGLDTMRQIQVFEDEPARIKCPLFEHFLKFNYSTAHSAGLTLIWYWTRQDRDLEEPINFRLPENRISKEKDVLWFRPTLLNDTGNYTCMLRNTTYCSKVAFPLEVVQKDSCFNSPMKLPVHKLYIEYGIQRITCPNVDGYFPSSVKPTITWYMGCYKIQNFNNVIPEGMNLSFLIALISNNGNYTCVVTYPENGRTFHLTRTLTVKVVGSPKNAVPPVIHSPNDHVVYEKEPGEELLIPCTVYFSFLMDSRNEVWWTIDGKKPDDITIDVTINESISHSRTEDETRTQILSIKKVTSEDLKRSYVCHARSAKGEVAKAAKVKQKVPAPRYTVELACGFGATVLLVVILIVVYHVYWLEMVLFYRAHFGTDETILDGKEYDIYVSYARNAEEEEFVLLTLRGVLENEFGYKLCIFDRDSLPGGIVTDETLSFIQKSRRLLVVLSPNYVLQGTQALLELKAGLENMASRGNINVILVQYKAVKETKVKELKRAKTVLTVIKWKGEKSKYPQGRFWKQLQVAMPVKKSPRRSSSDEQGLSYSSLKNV

T2: rhIL-1RAcP/Fc Chimera (human, UniProt Q9NPH3 21-359)
T2 construct: also called P013_03; P013-03
T2 sequence (looked up): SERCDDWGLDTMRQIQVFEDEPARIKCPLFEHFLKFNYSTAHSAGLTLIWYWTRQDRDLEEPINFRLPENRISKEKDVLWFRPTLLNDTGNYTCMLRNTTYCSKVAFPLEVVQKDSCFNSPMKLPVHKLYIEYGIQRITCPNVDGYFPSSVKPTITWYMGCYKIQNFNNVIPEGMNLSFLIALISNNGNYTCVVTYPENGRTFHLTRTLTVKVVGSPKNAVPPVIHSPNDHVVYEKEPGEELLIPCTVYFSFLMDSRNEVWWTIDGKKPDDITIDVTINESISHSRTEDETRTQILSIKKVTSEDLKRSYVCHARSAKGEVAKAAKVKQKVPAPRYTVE

T3: mIL1RAcP-Fc (murine, UniProt Q61730 21-359)
T3 construct: also called P013_04; P013-04
T3 sequence (looked up): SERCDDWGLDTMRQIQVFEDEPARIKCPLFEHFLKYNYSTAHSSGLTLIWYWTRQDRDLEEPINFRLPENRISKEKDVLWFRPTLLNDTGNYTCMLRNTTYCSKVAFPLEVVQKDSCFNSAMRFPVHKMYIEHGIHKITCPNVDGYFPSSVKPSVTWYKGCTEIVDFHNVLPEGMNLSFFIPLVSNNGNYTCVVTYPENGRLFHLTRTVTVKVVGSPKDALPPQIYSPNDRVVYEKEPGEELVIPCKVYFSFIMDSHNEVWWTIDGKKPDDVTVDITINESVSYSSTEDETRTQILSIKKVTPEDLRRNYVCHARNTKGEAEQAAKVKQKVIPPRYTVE

B1: P013.S.01.B.E04 (antibody, V domains shown)
VH: QSVEESGGRLVTPGTPLTLTCTVSGIDLNSNGINWVRQAPGKGLEWIGYIGAGDITYCASWAKGRFTISKTSSTTVDLKITSLTTEDTATYFCARWGPGALDLWGQGTLVTVSS
VL: AQVLTQTASSVSATVGGTVTISCQSSQSVYNNNYLSWYQQKPGQPPKLLIYKASTLASGVPLRFSGSGSGTQFTLTISGVQSDDAATYYCAGFYETTDVGFGGGTEVVVK
notes: rabbit monoclonal antibody; also called P013.A.00109.D07
B2: P013.S.02.B.D04 (antibody, V domains shown)
VH: QSLEESGGDLVQPGGSLTLTCKASGFSFSASYWICWVRQAPGKGLEWIGCIYIGGGGRYYASWAKGRFTISKTSSTTVTLQMTSLTAADTATYFCARDPVTSGSDYVYDLWGPGTLVTVAS
VL: AYDMTQTPASVEVAVGGTVTIKCQASESISTWLAWYQQKPGQPPNLLIYRASTLASGVPSRFYGSGYGTEFTLTISGVESADAATYYCQQGYTVNNIDNVFGGGTEVVVK
notes: rabbit monoclonal antibody; also called P013.A.00086.A06
B3: P013.S.01.B.C02 (antibody, V domains shown)
VH: QSLEESGGDLVKPGASLTLTCTASGFSFSSSHYMCWVRQAPGKGLEWIACIYAGSSGNTYYANWAKGRFTISKTSSTTVTLQMTSLTAADTATYFCARVDASSSGSWDLWGPGTLVTVSS
VL: AIEMTQTPFSVSAAVGGTVTINCQASESIYSNLAWYQQILGQPPKLLIYAASLLASGVPSRFKGSGSGTEYTLTISGVQSADAATYYCQSASYSTGPDWTFGGGTEVVVE
notes: rabbit monoclonal antibody; also called P013.A.00014.C10
B4: P013.S.01.B.E06 (antibody, V domains shown)
VH: B3 VH with S31T, H32Y, N58S, N63S, A101G
VL: AIEMTQTPSSVSAAVGGTVTINCQASQNIYSNLAWYQQKPGQRPKLLIYAASLLASGVPSRFKGNGSGTEYTLTISDLESADAATYYCQGAVYSGNTEWAFGGGTEVVVK
notes: rabbit monoclonal antibody; also called P013.A.00030.F07
B5: P013.S.01.B.C05 (antibody, V domains shown)
VH: QSVEESGGRLVTPGTPLTLTCTVSGFSLSNYAMSWVRQAPGKGLEYIGIIDSGGSAYYATWARGRFTISRTSTTVDLKMTSPTTEDTATYFCARGGPAYSTNTHYTLDLWGPGTLVTVSS
VL: AFEMTQTPSSVSEPVGGTVTIKCQASQSIYNYLSWYQQKPGQPPKLLIYDASELASGVPSRFKGSGSGTEFTLTISGVQSDDAATYYCQQGATTYNIENVFGGGTEVVVK
notes: rabbit monoclonal antibody; also called P013.A.00045.E06
B6: P013.S.02.B.E03 (antibody, V domains shown)
VH: QSVEESGGRLVTPGTPLTLTCTVSGFSLSDYYMGWVRQAPGKGLEWIGTIDGGGSTYYASWAKGRFTVSKTSTTVDLTITSPTTEDTAIYFCARNYYAGLSDVFFGWWGQGTLVTVSS
VL: DVVMTQTPASVEAAVGGTVTIMCQASETIYSGLAWYQQKPGQPPKLLIYYTSSLASGVPSRFKGSGSGTEFTLTISDLESADAATYYCQTYYDSEGRSYGYNSFGGGTEVVVK
notes: rabbit monoclonal antibody; also called P013.A.00091.A10
B7: P013.S.02.B.G01 (antibody, V domains shown)
VH: QSVEESGGRLVTPGGSLTLTCKVSGFSLSDYDIYWVRQAPGKGLEWIGVIDIENSVYYPTWAKGRFTISKTSTTVDLKITSPTTEDTATYFCARGDYIMTLDLWGQGTLVTVSS
VL: AAVLTQTPSPVSAAVGGTVTISCQASQSVYKNNRLAWYQQKPGQPPKLLIYLASTLASGVPSRFKGSGSGTQFTLTISDLESDDAATYYCAGGYSTISENAFGGGTEVVVK
notes: rabbit monoclonal antibody; also called P013.A.00015.G07
B8: P013.S.01.B.D06 (antibody, V domains shown)
VH: QSLEESGGDLVKPGASLTLTCTASGFSFSSSYYMCWVRQAPGKGLEWIACIYAGSSGVTYYASWAKGRFTISDTSSTTVTLQMTSLTAADTATYFCASETDGNYFNLWGPGTLVTVSS
VL: ALVMTQTPSPVSAAVGGTVTINCQASEDIYSNLAWFQQKPGQPPKLLIYRASTLASGVPSRFSGSGSGTEFTLTISGLQSDDAATYYCLGVYTYSTDIHAFGGGTEVVVK
notes: rabbit monoclonal antibody; also called P013.A.00029.D02
B9: P013.S.02.B.G03 (antibody, V domains shown)
VH: QSVEESGGRLVTPGTPLTLTCTVSGFSLSSYGMIWVRQAPGEGLEWIGFIGRGGATWYASWVKGRFTISKTSTTVDLKITSPTASDTATYFCARDGDSSDYYAFNLWGQGTLVTVSS
VL: DVVMTQTPASVSEPVGGTVTIKCQASQNIGSNLAWYQQRSGQPPKLLIYGASTLASGVPSRFSGSGSGTEFTLTISGVQSADAATYFCQCSGYDITGVFPFGGGSEVVVK
notes: rabbit monoclonal antibody; also called P013.A.00014.D07

These binders were tested against T1, human IL-1RAcP on 293T/17-FR cells (assay: cell-based or functional assay).

| functional reporter gene assay (% inhibition), 0.04 µg/mL mAb [%] | functional reporter gene assay (% inhibition), 0.2 µg/mL mAb [%] | functional reporter gene assay (% inhibition), 1 µg/mL mAb [%] | functional reporter gene assay (% inhibition), 5 µg/mL mAb [%] | primary supernatant functional assay (% inh.), NF-kB luciferase reporter [%] | Binder |
| --- | --- | --- | --- | --- | --- |
| 39 | 62 | 88 | 98 | 88 | B1 |
| 4 | 19 | 47 | 87 | 88 | B2 |
| 18 | 78 | 99 | 98 | 82 | B3 |
| 44 | 60 | 93 | 91 | 72 | B4 |
| 67 | 74 | 87 | 95 | 27 | B5 |
| 6 | 12 | 16 | 25 | 37 | B6 |
| 1 | 1 | 10 | -5 | -36 | B7 |
| 24 | 66 | 96 | 97 | 80 | B8 |
| 6 | 0 | 5 | 17 | -39 | B9 |

Each binder was assayed against T2, rhIL-1RAcP/Fc Chimera (assay: ELISA, recombinant purified mAb).

| EC50 [µg/mL] | Binder |
| --- | --- |
| 0.072 | B1 |
| 0.105 | B3 |
| 0.447 | B4 |
| 0.038 | B5 |
| 0.363 | B6 |
| 0.053 | B8 |

What follows are binders tested against T2, rhIL-1RAcP/Fc Chimera (assay: ELISA, primary supernatant, coated hu-IL-1RAcP-Fc).
Excerpt: Microtiter plates were coated IL-1RACP and/or IL12Rβ1 protein (recombinant Fc chimeric conjugates of human IL-1RACP or IL12Rβ1). After a blocking process, specific antibodies from B-cell supernatants bind to the targets and are then detected by a POD-labeled anti-rabbit IgG antibody. The IL12Rβ1 binding was used as a counterscreen. IL-1RACP protein was tagged with a linker, huFc and His like the IL12Rβ1 protein. Antibodies which bind to the tag were positive in both assays, whereas antigen specific antibodies just bound to IL-1RACP and not to IL12Rβ1.
12.5 μL 0.5 μg/mL IL-1RACP protein in PBS was transferred to a microtiter plate, incubated and washed 3× with Wash Buffer. 90 μL Block Buffer was added to each well, incubated and washed. 12.5 μl Standard Antibody (rabbit mAb against IL-1RAcP, anti IL12Rbeta1 antibody: IL-12Rbeta1 antibody; GeneTex; Cat. No. GTX103917) or sample diluted in ELISA buffer was added, incubated and washed. 12.5 μl 1:5000 POD-Antibody (Anti-rabbit IgG, peroxidase-linked species-specific Fab2 fragment (from donkey) (ECL); assay dilution: 1:5000) in Elisa Buffer was added, incubated and washed. 15 μl TMB was added and 15 μl HCl was added after sufficient development. Absorbance (Optical Density O.D.) was read at 450 nm/620 nm.

| hu-IL1RaP ELISA (OD) | Binder |
| --- | --- |
| 3.3 | B1 |
| 3.6 | B2 |
| 3.4 | B3 |
| 3.4 | B4 |
| 2.5 | B5 |
| 3.3 | B6 |
| 2.2 | B7 |
| 3.7 | B8 |
| 1.4 | B9 |

Each binder was assayed against T3, mIL1RAcP-Fc (assay: ELISA, primary supernatant, coated mu-IL-1RAcP-Fc).

| mu-IL1RaP ELISA (OD) | Binder |
| --- | --- |
| 0 | B2 |
| 0.4 | B7 |
| 1.1 | B9 |
